# Experimental data as given in the RNAGym collection of RNA variant scans (doi:10.1073/pnas.2313332121).
# Variants at the floor of the assay were thinned out.
# B1: TPR 5TU (parent)
# chain: GGAUCUUCUCGAUCUAACAAAAAAGACAAAUCUGCCACAAAGCUUGAGAGCAUCUUCGGAUGCAGAGGCGGCAGCCUUCGGUGGCGCGAUAGCGCCAACGUUCUCAACUAUGACACGCAAAACGCGUGCUCCGUUGAAUGGAGUUUAUCAUG
# Variants of: B1
# Experiment: polymerase ribozyme fitness, log enrichment relative to wild type (log ratio); higher = more active; in vitro selection for triplet polymerase activity
# Procedure, shortened: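 Each subunit of a heterodimeric triplet polymerase ribozyme was represented by a PCR-built, transcribed mutant library that underwent triplicate single-round in vitro selection with frozen incubation at −7 °C. Extended constructs were recovered by gel excision, streptavidin-bead capture and RT-PCR, and Illumina sequencing of input and output libraries kept genotypes with ≥10 input reads and ≥1 read per output. Fitness is the logarithm of genotype enrichment relative to wild-type enrichment, from inverse-variance-weighted replicate averages, with a logarithm base of 2.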
row,Variant,polymerase ribozyme fitness (log ratio)
1,C43A C54U G71C C103U A115U G117U,≤ -4.2
2,G42U C93A C96U,≤ -4.2
3,C43U A119G,≤ -4.2
4,U44G U56A,-3.19
5,A47C G50A G83A,-2.44
6,G42U C85G G86C U90G,≤ -4.2
7,U45A C96G A121U,-2.93
8,U45A A52C A73C A91U U101C,≤ -4.2
9,G42U G92C,-3.85
10,G46U C87U,-0.944
11,G42A G62A G65U G136U,≤ -4.2
12,C43A C54U,≤ -4.2
13,C43G A52U A142C U144A,≤ -4.2
14,A47C C85G C96A A98G,≤ -4.2
15,G42C G133C G143C,≤ -4.2
16,G46C A91G,-3.27
17,U45G G70A G92U G94A C116G G152U,≤ -4.2
18,A47C U55A,0.201
19,G42A G80C G86C,≤ -4.2
20,G46A A49C G71U G86A C96U A97U,≤ -4.2
21,G46C G59A A66G G83A A120U C123G,≤ -4.2
22,G42U U55A,-4.17
23,U44G C57U A91U U109C,≤ -4.2
24,G42U C76A C93U C96U U145C,≤ -4.2

row,Variant,polymerase ribozyme fitness (log ratio)
1,U44A C85G U109G U146C,≤ -4.2
2,U45A G68C U82G G83C G94A C118U,≤ -4.2
3,G46A C125A U134C,-0.78
4,C43U U45A G86A A115C C118G,≤ -4.2
5,U45A G86A,-3.54
6,C43U U45G G46C A49U U82A A89U C108G,≤ -4.2
7,C43G C85U C99U A120C G128U A147U,≤ -4.2
8,G42U G65C G70A C76A G86U U139G A142U,≤ -4.2
9,G46C A47C G48A U82C,≤ -4.2
10,A47C A115C U144G,-0.866
11,U45A U61A,-4.16
12,G42C C87U A113C C118G G141C,≤ -4.2
13,G46A G88U C132U,≤ -4.2
14,C43U G88A G94A A122G,≤ -4.2
15,G46C A47C C72U C103A,≤ -4.2
16,U44C C51U G92U C96G U102G G128C,≤ -4.2
17,C43A C93G G133A,≤ -4.2
18,G46C A98U,-1.22
19,A47C G50A G92U,-1.37
20,G42C G59A C93G A106C,≤ -4.2
21,U44C U61C A64G C85U C87G C95A C96G C99A G136A,≤ -4.2
22,C43U A147U,-4.06
23,G42C U127G A150G,≤ -4.2
24,A47C A60G A107U,-3.3

row,Variant,polymerase ribozyme fitness (log ratio)
1,G46A A47G C72A C108U U144A,≤ -4.2
2,G42U U55G G59A G88U C96G A98G,≤ -4.2
3,G46U C72U C87U,-1.01
4,G42C G46A C75G A91G U102G G133U G152A,≤ -4.2
5,U45A A97U,-2.84
6,G42U C63U G68A C95U G112U U146G,≤ -4.2
7,U45G A49C C63G G84A G141C,≤ -4.2
8,G42U A91U,≤ -4.2
9,U44A C54U,-3.59
10,G42U,-3.47
11,G42C,-3.77
12,U44A C85A C96G,≤ -4.2
13,A47C G50A,-1.47
14,C43G U45G U134C,≤ -4.2
15,U44A C93G A113G U134A,≤ -4.2
16,A47C C87A C99U G136U G141C,≤ -4.2
17,G42C U61A C75G C93A,≤ -4.2
18,G46C G68A,-4.14
19,G46C G48A C76G U78G G83A G143C,-4.2
20,A47C G59A C85G,-2.62
21,G46C C69A G81A,-1.82
22,G46U U55A G84U G126C,-1.83
23,U44G U55A C93A A120G,≤ -4.2
24,A47C U53C C95A U104G A119U G136U,-3.11

row,Variant,polymerase ribozyme fitness (log ratio)
1,U44G C54U C87U A91U G141C G143C,≤ -4.2
2,U44A U45A A47C G86A U130G,≤ -4.2
3,G46A G50C U55A U56A C87U G88U C125A G136A,≤ -4.2
4,U44A C85U C87A G117U C149U,≤ -4.2
5,G46C C54U,-0.821
6,G46A C57U G58C C76A C96A U101C A106U,≤ -4.2
7,A47C G50C A52C C85G C105A G141U,≤ -4.2
8,G46A G124C,-1.46
9,U44A A47C A52G C79U C85U C118U,≤ -4.2
10,C43U C116G,-3.65
11,U45A C87U C132G U139C G143A U145G,≤ -4.2
12,U44A U82G,≤ -4.2
13,G46C C85G G88A C118U U144G,≤ -4.2
14,G42C U45A C79A G86A U104C A107C,≤ -4.2
15,U45A G48C G50C U53A U56A U61G C105G A119G G136U,≤ -4.2
16,U45A G48U G50C C85A C87A C95A U145C,≤ -4.2
17,G42A G83C C96G C105U A110G U139C,≤ -4.2
18,U45G U55G C76U G84A,-3.76
19,U45C U56A A64C G74A G94C C114U A115U,≤ -4.2
20,A47C G88U,-3.96
21,U44C U146C,-3.77
22,G42A G88A C96A C118G G126U,≤ -4.2
23,U44A A137U,-3.68
24,U44A C76U C87A C105A A107G U127A U145C G152U,≤ -4.2

row,Variant,polymerase ribozyme fitness (log ratio)
1,C43G A64C A73C C87A C105G,≤ -4.2
2,G46A U56A G83U,-2.27
3,G42C G48U U61A A110U,≤ -4.2
4,U44G U55A A91U G141C,≤ -4.2
5,A47C G58U G92U A97U,-1.96
6,U45A C72G C79U G83U U104G,≤ -4.2
7,C43U C54U G140U,≤ -4.2
8,U45A A106C,-0.488
9,U44A A49C C54G C57U G58C C95G C96U,≤ -4.2
10,U44A U82C C85A,≤ -4.2
11,U45A G50C C54G G67A C87A A91U A115C,≤ -4.2
12,A47C G50U G59A G70A C79U U82G C95U G124A U144G,≤ -4.2
13,A47C G136A,0.0265
14,G42C G84A A122U,≤ -4.2
15,G46A G67U C87A C103G U111C G140A,≤ -4.2
16,G42C C75G,≤ -4.2
17,U44A A60G G67A G92U C105A,≤ -4.2
18,U44C A98G,-3.97
19,G42C C72U G92C C96U,≤ -4.2
20,U45A U53C C57U C85A C96A C123U C125A A142C,≤ -4.2
21,U45A G59C C85U G86A G92U U146G,≤ -4.2
22,U45A A60G A66C G68C C69U,≤ -4.2
23,G42U A73C C95U A98C U144A,≤ -4.2
24,G46A C93U C129G,≤ -4.2

row,Variant,polymerase ribozyme fitness (log ratio)
1,U44G U45A A47C C54A C57U U61A C93U,≤ -4.2
2,G42C A60G C79A C87U C105G C118A G124C,≤ -4.2
3,U44A A107U,-0.956
4,A47C C69G G83A A119G U146C,-2.18
5,C43U G80A A115G,≤ -4.2
6,G42A G59U,-3.95
7,G46A G50C C79A G84U C95U A115C,≤ -4.2
8,G46A C51A A98G C125U,≤ -4.2
9,U44A C95U,-3.87
10,U44A C95A,-4.11
11,G42C U56G G68U U78A C93U A142C,≤ -4.2
12,U45A C79U C103A C118U,≤ -4.2
13,G42C U56A C85U C95A U127C G143U,≤ -4.2
14,G42C G80C G86U C118U A121G A150G,≤ -4.2
15,A47C G117A,0.357
16,C43G G50A C85U,≤ -4.2
17,G42C U111A,≤ -4.2
18,A47C A89G A97U C131G,≤ -4.2
19,G46C G83C G88C A97G,≤ -4.2
20,U44A G50U C75G C79U C87A C125U,≤ -4.2
21,U45C C57A G74C G80U U101A U139A G143C,≤ -4.2
22,A47C C54G,-1.14
23,U45G G92C,-2.2
24,A47C A73U G83C C118A,≤ -4.2

row,Variant,polymerase ribozyme fitness (log ratio)
1,G42U C57G G58A C85G,≤ -4.2
2,C43U C96A C116G A137U,≤ -4.2
3,G46U A138C,-3.8
4,G46A G62U,-4.09
5,C43U C99G,≤ -4.2
6,U45A C118U A120C,-2.58
7,A47C A110U,≤ -4.2
8,A47C C79G,≤ -4.2
9,G46C C87A G94C U101A U134A G141U,≤ -4.2
10,G46C G50U G84U A121C G124U,-3.31
11,U45G G46A A64U G71U G81A A89G A142G,≤ -4.2
12,A47C,-0.224
13,U45G A47U U56A G67C A89U C96A A97G A138C,≤ -4.2
14,G46C A47U U53A C85U U130C A150G,≤ -4.2
15,U45A U56A G65C A91U G92A U130C A147U,≤ -4.2
16,C43U G80U C93G C99G,≤ -4.2
17,C43G G83A,≤ -4.2
18,A47C C79U G83A C87U C99A C103U,-4.14
19,U45A A66G G80A A142G,≤ -4.2
20,U44G G92C,≤ -4.2
21,U45A G84U,≤ -4.2
22,G42U G48A U55A C118A A137G,≤ -4.2
23,U44A C72A C87U C99G U135A,≤ -4.2
